Assay results as given in US20250127904A1, “SIGLEC LIGANDS, CONJUGATES, AND METHODS OF USE THEREOF” (Osprey Biopharmaceuticals, Inc., priority 2023, published 2025).

How the values were obtained:
C57BL/6 mice = experiment: In vivo anti-drug antibody (ADA) titers in mice; set-up: species or system mouse; details: 4 mg/kg subcutaneous, day 20
Protocol: Adalimumab and Adalimumab-Siglec Ligand conjugates were prepared as described in Example 4. The Adalimumab-Siglec ligand was conjugated by maleimide coupling to engineered cysteine residue L443C in the heavy chain constant region.
To evaluate the production of antibodies specific to adalimumab and/or adalimumab-Siglec Ligand conjugates, C57BL/6 mice were immunized through subcutaneous injection with adalimumab or CD22 ligand-conjugated adalimumab. On study day −1, animals were randomized into treatment groups based on body weight. On study day 0, animals were bled for baseline serum and then injected subcutaneously with adalimumab or the adalimumab-Siglec Ligand conjugate. The individual antigens were prepared by making antigen solution in sterile PBS pH 7.4. […]
ADA assays were performed on 96-well assay plates (Nunc Plates, Black 96-Well Immuno Plates, Thermo Scientific, Cat. No. 437111) coated with antigen, as follows. […] The excitation and emission settings for the QuantaBlu Fluorogenic Peroxide Substrates are 325 nm and 420 nm and the relative florescence units were measured using a SpectraMax plate reader. […] The titer cut point was determined by calculating the mean of the naïve, untreated mice and adding twice the standard deviation of the untreated samples.

[1] = Pharmacokinetic monitoring in mice after single subcutaneous administration; assay type: in vivo, mouse; details: C57BL/6 mice, single subcutaneous dose 4 mg/kg
Protocol: Pharmacokinetic monitoring was also carried out in the same C57BL/6 mice following a single subcutaneous administration of adalimumab or the SigL-conjugated adalimumab antibodies. Animals were bled via the retro-orbital sinus throughout the study under inhaled isoflurane anesthesia at 1 h, 6 h, 1-day, 2-days, 6-days, 13-days, 20 days and 27-days post test-article administration. Whole blood was collected into Microvette K2EDTA capillary collection tube (Sarstedt Inc) and then further processed following manufactures instructions to collect plasma. Levels of adalimumab and SigL-conjugated adalimumab in plasma samples were measured using an AlphaLISA human IgG assay (Perkin Elmer) following manufacturer's protocols.

**Q.** What does the source list for Adalimumab?
**A.** ADA titers (C57BL/6 mice): high ADA titers; clearance [1]: significantly increased clearance; time of falling below the limit of quantitation (BLOQ) [1]: 13 days
